Assay results: US8835119B2, “Lectin pathway deficiency assay” (Euro Diagnostica AB, priority 2002, dated 2014)

What was measured:
[1] = test system: alternative pathway (AP) of complement; conditions: NHS in calcium-free buffer (GVB/MgEGTA)
Description: As a ligand for AP activation, LPS was coated at 10 μg/ml. LPS from Salmonella typhosa was obtained from Sigma (L-6386), dissolved in PBS at 1.6 mg/ml and stored at −20° C. Plates were blocked by using 1% BSA in PBS. Serum samples were diluted in GVB/MgEGTA (VBS containing 10 mM EGTA, 5 mM MgCl2, 0.05% Tween-20, and 0.1% gelatin; pH 7.5) and incubated in the plate for 1 hour at 37° C. Complement binding was assessed by using dig-conjugated mAb directed against C4 and C3 followed by the detection of mAb binding by using HRP-conjugated sheep anti-dig antibodies.
In order to enable the detection of all complement activation pathways in one assay system, the activation of the alternative pathway in an ELISA system was also studied. […] Therefore, a calcium-free buffer was used, thus excluding involvement of the CP and the LP.

[2] = test system: classical complement pathway; conditions: several in vitro assays; cited from earlier work
C1q [3] = target: T1, C1q (Homo sapiens, UniProt P02745+P02746+P02747); conditions: cited from earlier work
C1q [4] = target: T1, C1q; parameters: Human C1q was isolated from human donor plasma exactly as described previously; from tissue; host or cells: human donor plasma; conditions: cited from earlier work
C1q [5] = target: T1, C1q; parameters: Human C1q was isolated from human donor plasma exactly as described previously; from tissue; host or cells: human donor plasma; conditions: cited from earlier work; remark: listed apart in the source
[6] = test system: classical pathway (CP) of complement; assay: Classical pathway ELISA: complement activation by NHS on immobilized IgM; format: biochemical, human; conditions: FIG. 3C; C1q-depleted NHS 1/400, purified C1q 0.5 μg/ml
Description: Anti-C1q antibodies were tested for their ability to inhibit the CP of complement by using immobilized IgM as a specific activator of the CP. […] These antibodies were tested for their effect on complement activation induced by immobilized mannan.
As a ligand for CP activation, human IgM was coated at 2 μg/ml. After blocking of residual binding sites, serum samples, diluted in GVB++, were added to the plate and incubated for 1 hour at 37° C.
The complement activation cascade was further studied by using mAb to detect binding of specific complement components upon their activation via the CP and the LP, respectively. […] Therefore, addition of mAb 2004 to serum allows the specific detection of LP activation by using mannan as ligand without any interference of the CP.

C1q [7] = target: T1, C1q; assay: C1q-dependent hemolytic assay; format: cell-based; parameters: Human C1q was isolated from human donor plasma exactly as described previously; from tissue; host or cells: human donor plasma
Description: (Roos A., et al., J. Immunol. 167, 7052-7059, 2001).
For the preparation of C1q-depleted serum, undiluted normal human EDTA plasma (obtained from a donor with the MBL/AA genotype) was applied on column consisting of Biogel A5 (from Biorad) coupled to rabbit IgG anti-human C1q. The column was washed by using Veronal-buffered saline (VBS; 1.8 mM Na-5,5-diethylbarbital, 0.2 mM 5,5-diethylbarbituric acid, 145 mM NaCl) containing 10 mM EDTA. Fractions were tested in a C1q-dependent hemolytic assay in the absence or presence of purified C1q. […] After recalcification, C1q-depleted serum was stored at −80° C.

[8] = test system: lectin pathway (LP) of complement; assay: Lectin pathway ELISA: complement activation by NHS on immobilized mannan; format: biochemical, human; conditions: FIG. 3C; C1q-depleted NHS 1/400, purified C1q 0.5 μg/ml
Description: Functional activity of the lectin pathway was assessed with ELISA by using immobilized mannan as a ligand. Mannan was obtained from Sigma from Saccharomyces cerevisiae; M7504), dissolved in PBS (10 mg/ml) and stored at −20° C. Nunc Maxisorb plates (Nunc, Roskilde, Denmark) were coated with mannan (100 μg/ml) in coating buffer (100 mM Na2CO3/NaHCO3, pH 9.6) for 16 hours at room temperature or for 2 hours at 37° C. After each step, the plates were washed three times with PBS containing 0.05% Tween 20. Residual binding sites were blocked by incubation for one hour at 37° C. with PBS containing 1% BSA. […] This mixture was pre-incubated for 15 minutes on ice, before addition to the plates. […] Complement binding was detected by using mouse mAb conjugated to digoxygenin (dig) by using digoxygenin-3-O-methylcarbonyl-ε-aminocaproic acid-N-hydroxysuccinimide ester (from Boehringer Mannheim, Mannheim, Germany) according to instructions provided by the manufacturer. […] Binding of mAb was detected by using dig-conjugated sheep anti-mouse antibodies (Fab fragments) followed by HRP-conjugated sheep anti-dig antibodies (Fab fragments, both from Boehringer Mannheim). […] Enzyme activity of HRP was detected following incubation at room temperature for 30-60 min with 2,2′-azino-bis(3-ethylbenzthiazoline-6-sulfonic acid) (from Sigma; 2.5 mg/ml in 0.1 M citrate/Na2HPO4 buffer, pH 4.2) in the presence of 0.01% H2O2. […]

T1 sequence (P02745 23-245): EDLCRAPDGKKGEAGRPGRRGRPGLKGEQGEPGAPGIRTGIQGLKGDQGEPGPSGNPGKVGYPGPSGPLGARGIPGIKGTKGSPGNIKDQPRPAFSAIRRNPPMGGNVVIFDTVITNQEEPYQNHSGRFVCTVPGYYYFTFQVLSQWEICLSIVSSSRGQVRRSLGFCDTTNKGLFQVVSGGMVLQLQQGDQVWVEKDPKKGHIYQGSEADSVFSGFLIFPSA
T1 sequence (P02746 28-253): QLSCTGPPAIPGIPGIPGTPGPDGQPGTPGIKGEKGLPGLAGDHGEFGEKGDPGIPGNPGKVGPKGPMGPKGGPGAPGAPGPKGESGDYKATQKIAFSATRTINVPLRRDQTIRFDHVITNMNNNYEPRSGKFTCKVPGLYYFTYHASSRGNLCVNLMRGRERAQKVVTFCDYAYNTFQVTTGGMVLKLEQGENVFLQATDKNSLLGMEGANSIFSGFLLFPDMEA
T1 sequence (P02747 29-245): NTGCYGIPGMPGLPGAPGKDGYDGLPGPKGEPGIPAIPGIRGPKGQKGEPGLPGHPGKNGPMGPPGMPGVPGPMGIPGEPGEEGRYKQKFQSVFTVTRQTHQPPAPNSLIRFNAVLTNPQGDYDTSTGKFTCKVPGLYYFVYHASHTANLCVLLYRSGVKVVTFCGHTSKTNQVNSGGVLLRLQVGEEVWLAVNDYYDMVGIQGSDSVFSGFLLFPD

Molecule | Mechanism of C1 inhibition (C1q [3]) | other results
O=C(O)CN(CCN(CC(=O)O)CC(=O)O)CC(=O)O [EDTA] | – | Detection of C3 when present in the complement source [1]: reduced until background levels
AEAKAKA | Inhibits C1q ligand binding | Inhibition of activation of the classical complement pathway [2]: able to inhibit
C1 inhibitor: plasma serine protease inhibitor | Inhibits C1r and C1s activity | –
CEGPFGPRHDLTFCW [Peptide 2J] | Binds C1q head, inhibits | Inhibition of binding of C1q to IgG (C1q [4]): inhibits; Inhibition of C1q-dependent hemolysis / C1q hemolytic function (C1q [5]): strong inhibitor
KDIRCKDD | Inhibits C1q ligand binding | –
LEQGENVFLQATLL [Peptide CBP2] | Acts as a competitor for C1q | –
Surfactant protein A: collectin present in the lung | Inhibits C1q ligand binding | –
VQVHNAKTKPR | – | Inhibition of activation of the classical complement pathway [2]: able to inhibit
human neutrophil peptide-1 [HNP-1] | Binds C1q tail and inhibits | –
purified C1q: human C1q isolated from human donor plasma | – | C4 activation by IgM after reconstitution of C1q-depleted serum [6]: complete restoration; Restoration of lysis of antibody-coated erythrocytes induced by C1q-depleted human serum (C1q [7]): completely restore; C4 activation by mannan after addition to C1q-depleted serum [8]: slightly inhibited
Decorin: dermatan sulfate proteoglycan, a constituent of the extracellular matrix (protein, UniProt P07585 31-359, looked up) Decorin: DEASGIGPEVPDDRDFEPSLGPVCPFRCQCHLRVVQCSDLGLDKVPKDLPPDTTLLDLQNNKITEIKDGDFKNLKNLHALILVNNKISKVSPGAFTPLVKLERLYLSKNQLKELPEKMPKTLQELRAHENEITKVRKVTFNGLNQMIVIELGTNPLKSSGIENGAFQGMKKLSYIRIADTNITSIPQGLPPSLTELHLDGNKISRVDAASLKGLNNLAKLGLSFNSISAVDNGSLANTPHLRELHLDNNKLTRVPGGLAEHKYIQVVYLHNNNISVVGSSDFCPPGHNTKKASYSGVSLFSNPVQYWEIQPSTFRCVYVRSAIQLGNYK | Binds to C1q head | –
gC1qR: globular C1q receptor, binds specifically to the globular head of C1q (protein, UniProt Q07021 74-282, looked up) Complement component 1 Q …: LHTDGDKAFVDFLSDEIKEERKIQKHKTLPKMSGGWELELNGTEAKLVRKVAGEKITVTFNINNSIPPTFDGEEEPSQGQKVEEQEPELTSTPNFVVEVIKNDDGKKALVLDCHYPEDEVGQEDEAESDIFSIREVSFQSTGESEWKDTNYTLNTDSLDWALYDHLMDFLADRGVDNTFADELVELSTALEHQEYITFLEDLKSFVKSQ | Binds C1q head | –
Calreticulin (protein, UniProt P27797 18-417, looked up) Calreticulin: EPAVYFKEQFLDGDGWTSRWIESKHKSDFGKFVLSSGKFYGDEEKDKGLQTSQDARFYALSASFEPFSNKGQTLVVQFTVKHEQNIDCGGGYVKLFPNSLDQTDMHGDSEYNIMFGPDICGPGTKKVHVIFNYKGKNVLINKDIRCKDDEFTHLYTLIVRPDNTYEVKIDNSQVESGSLEDDWDFLPPKKIKDPDASKPEDWDERAKIDDPTDSKPEDWDKPEHIPDPDAKKPEDWDEEMDGEWEPPVIQNPEYKGEWKPRQIDNPDYKGTWIHPEIDNPEYSPDPSIYAYDNFGVLGLDLWQVKSGTIFDNFLITNDEAYAEEFGNETWGVTKAAEKQMKDKQDEEQRLKEEEEDKKRKEEEEAEDKEDDEDKDEDEEDEEDKEEDEEEDVPGQAKDEL | – | Inhibition of C1q-dependent hemolysis / C1q hemolytic function (C1q [5]): inhibit
